# In patent US20150346192A1:
# Legend:
# [1] = biological target: hypothetical protein LOC297607 (rat) (UniProt D4A770); test: IP of RBL-2H3 lysate on nickel beads, MS/MS ProtScore; 2nd of 3 experiments
# [2] = biological target: hypothetical protein LOC297607 (rat) (UniProt D4A770); test: IP of RBL-2H3 lysate on nickel beads, MS/MS ProtScore; 3rd of 3 experiments
# [3] = biological target: hypothetical protein LOC297607 (rat) (UniProt D4A770); test: IP of RBL-2H3 lysate on nickel beads, MS/MS ProtScore; 1st of 3 experiments
# hypothetical protein LOC297607 (rat), sequence (D4A770 whole entry): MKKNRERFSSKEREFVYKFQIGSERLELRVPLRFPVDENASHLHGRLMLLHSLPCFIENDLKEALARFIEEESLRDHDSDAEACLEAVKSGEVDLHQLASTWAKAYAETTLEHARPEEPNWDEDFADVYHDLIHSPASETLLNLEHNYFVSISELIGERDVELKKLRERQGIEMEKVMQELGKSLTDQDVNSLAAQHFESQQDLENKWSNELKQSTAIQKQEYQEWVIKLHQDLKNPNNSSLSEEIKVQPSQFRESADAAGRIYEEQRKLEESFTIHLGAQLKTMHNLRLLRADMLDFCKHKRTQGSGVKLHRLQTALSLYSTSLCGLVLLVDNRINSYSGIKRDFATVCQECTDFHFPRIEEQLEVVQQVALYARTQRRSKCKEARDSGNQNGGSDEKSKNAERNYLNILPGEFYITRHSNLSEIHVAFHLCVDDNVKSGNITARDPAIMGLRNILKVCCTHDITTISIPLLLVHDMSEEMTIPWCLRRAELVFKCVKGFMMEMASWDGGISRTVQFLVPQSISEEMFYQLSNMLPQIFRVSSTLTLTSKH
substance,measurement,setting,value
irrelevant VH,Protscore IP,[1],0
same,Protscore IP,[2],2
same,Protscore IP,[3],0
